According to US20240270861A1:
One block for each substance: values may come before it.

Tests used:
[1] = target: human BAFF-R (B cell-activating factor receptor) expressed on cells (human) (UniProt Q96RJ3); assay: cell-based or functional assay
[2] = target: human BAFF-R (B cell-activating factor receptor) expressed on cells (human) (UniProt Q96RJ3); assay: BAFF-biotin blocking, flow cytometry, hBAFF-R CHO cells; competitor BAFF-biotin
[3] = target: poly-specificity reagent (PSR): detergent solubilized CHO cell membrane proteins; assay: flow cytometry PSR assay: test article captured on protein A beads, biotinylated PSR detected with streptavidin-PE, anti-human Fc for expression; control panel without PSR (FIG. 71D) prints Q2 0.019
[4] = target: poly-specificity reagent (PSR): detergent solubilized CHO cell membrane proteins; assay: flow cytometry PSR assay: test article on Protein A coated beads, biotinylated PSR, read-out with SA-PE
[5] = target: poly-specificity reagent (PSR): detergent solubilized CHO cell membrane proteins; assay: PSR assay: molecule on protein A beads, biotinylated PSR, SA-PE read out by flow cytometry; + PSR panel
[6] = target: poly-specificity reagent (PSR): detergent solubilized CHO cell membrane proteins; assay: flow cytometry PSR assay: test article captured on protein A beads, biotinylated PSR detected with streptavidin-PE, anti-human Fc for expression; control panel without PSR (FIG. 71C) prints Q2 0.020

- Minimum (MFI) [2]: 68000 MFI
Substance: Human IgG1k (antibody)

- percent of events in Q2 (Expression-FITC positive, Binding-PE positive), + PSR [4]: 79.6%
Substance: Ixekizumab (antibody)

- events in quadrant Q2 (Expression-FITC positive, Binding-PE positive), + PSR [6]: 0.067%
- percent of events in Q2 (Expression-FITC positive, Binding-PE positive), + PSR [4]: 0.087%
Substance: trastuzumab (antibody)

The next lines start with the substance.

Substance: F3′ isotype control (F3′-palivizumab) (bispecific antibody)
- KHYG-1-CD16a cytotoxicity on BJAB cells, Max killing (%) [1]: 48%

Substance: Ixekizumab (PSR positive control) (antibody)
- events in quadrant Q2 (Expression-FITC positive, Binding-PE positive), + PSR [3]: 79.6%

Substance: Ixekuzumab (antibody)
- % of events in quadrant Q2 (PSR binding+) [5]: 27.1%

Substance: Rituximab (antibody)
- percent of events in Q2 (Expression-FITC positive, Binding-PE positive), + PSR [4]: 56.2%
